In IntAct's records for PubMed 20595257:

B1: Aerobic respiration control sensor protein ArcB (Escherichia coli (strain K12)), P0AEC3 (parent)
chain: MKQIRLLAQYYVDLMMKLGLVRFSMLLALALVVLAIVVQMAVTMVLHGQVESIDVIRSIFFGLLITPWAVYFLSVVVEQLEESRQRLSRLVQKLEEMRERDLSLNVQLKDNIAQLNQEIAVREKAEAELQETFGQLKIEIKEREETQIQLEQQSSFLRSFLDASPDLVFYRNEDKEFSGCNRAMELLTGKSEKQLVHLKPADVYSPEAAAKVIETDEKVFRHNVSLTYEQWLDYPDGRKACFEIRKVPYYDRVGKRHGLMGFGRDITERKRYQDALERASRDKTTFISTISHELRTPLNGIVGLSRILLDTELTAEQEKYLKTIHVSAVTLGNIFNDIIDMDKMERRKVQLDNQPVDFTSFLADLENLSALQAQQKGLRFNLEPTLPLPHQVITDGTRLRQILWNLISNAVKFTQQGQVTVRVRYDEGDMLHFEVEDSGIGIPQDELDKIFAMYYQVKDSHGGKPATGTGIGLAVSRRLAKNMGGDITVTSEQGKGSTFTLTIHAPSVAEEVDDAFDEDDMPLPALNVLLVEDIELNVIVARSVLEKLGNSVDVAMTGKAALEMFKPGEYDLVLLDIQLPDMTGLDISRELTKRYPREDLPPLVALTANVLKDKQEYLNAGMDDVLSKPLSVPALTAMIKKFWDTQDDEESTVTTEENSKSEALLDIPMLEQYLELVGPKLITDGLAVFEKMMPGYVSVLESNLTAQDKKGIVEEGHKIKGAAGSVGLRHLQQLGQQIQSPDLPAWEDNVGEWIEEMKEEWRHDVEVLKAWVAKATKK
B2: Phage shock protein B (Escherichia coli (strain K12)), P0AFM9 (parent)
chain: MSALFLAIPLTIFVLFVLPIWLWLHYSNRSGRSELSQSEQQRLAQLADEAKRMRERIQALESILDAEHPNWRDR
partner: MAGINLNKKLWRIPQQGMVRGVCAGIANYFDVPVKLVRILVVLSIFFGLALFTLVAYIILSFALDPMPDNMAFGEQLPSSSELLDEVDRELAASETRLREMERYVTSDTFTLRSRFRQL
B3: Phage shock protein C (Escherichia coli (strain K12)), P0AFN2 (parent)
chain: B2 partner
B4: Phage shock protein C (Escherichia coli (strain K12)), P0AFN2 (parent)
chain: B2 partner
partner: B2 chain
B5: Aerobic respiration control sensor protein ArcB (Escherichia coli (strain K12)), P0AEC3 (parent)
chain: B1 chain
partner: B2 partner
B6: Aerobic respiration control sensor protein ArcB (Escherichia coli (strain K12)), P0AEC3 (parent)
chain: B1 chain
partner: B2 chain

Variants of: B1
Details: with pspa_ecoli pspA

Variant	effect of a mutation on the interaction
L87A;L90A;L94A;M97A	with no effect

Variants of: B2
Details: with pspc_ecoli pspC

Variant	effect of a mutation on the interaction
L10A;L15A;L18A	with no effect

Variants of: B3
Details: with pspa_ecoli pspA

Variant	effect of a mutation on the interaction
G74A	with no effect
G48A	disrupting interaction strength
L91A;L98A	disrupting interaction strength

Variants of: B4
Details: with pspb_ecoli pspB

Variant	effect of a mutation on the interaction
G48A	with no effect
G74A	with no effect

Variants of: B5
Details: with pspc_ecoli pspC

Variant	effect of a mutation on the interaction
L87A;L90A;L94A;M97A	with no effect

Variants of: B6
Details: with pspb_ecoli pspB

Variant	effect of a mutation on the interaction
L87A;L90A;L94A;M97A	with no effect
